Measured values taken from the DeepSol protein solubility set.

Experiment: soluble on expression in E. coli; label from the status in PepcDB or PDB records

Row | Sequence | soluble on expression in E. coli
1 | MGHHHHHHSHMAIQVDKFNFESFPESPGEKGQFANPKQLEEERREARGLEIHSKLGICWRIPSLKRSGEASVEGLLNQLVLEHLQLAPLQWDVLVDGQPCDREAVAACQVGDPVRLEVRLTNRSPRSVGPFALTVVPFQDHQNGVHNYDLHDTVSFVGSSTFYLDAVQPSGQSACLGALLFLYTGDFFLHIRFHEDSTSKELPPSWFCLPSVHVCALEAQA | not soluble
2 | MFRGIVQGRGVIRSISKSEDSQRHGIAFPEGMFQLVDVDTVMLVNGCSNTVVRILGDMVYFDIDQALGTTTFDGLKEGDQVNLEIHPKFGEVVGRGGLTGNIKGTALVAAIEENDAGFSVLIDIPKGLAENLTVKDDIGIDGISLPITDMSDSIITLNYSRDLLASTNIASLAKDVKVNVEILNEW | soluble
3 | MSNEKFNNVPKPAGNGPHTPEDHAIKGELTFEDKVVQKIIGLALENVDGLLTVDGGFFSNIAEKLVNTDNVTAGIDTEVGKKQVAVDMDIVVEYGKDIQDIYEKMKELISREVKKMTHLDVIEVNVNVVDIKSKEEYEEDSETVQDKVTGAAKSTGEFASEQTEKAKKAVNKGTEQVKENMEPRVELEHHHHHH | soluble
4 | MDIISVALKRHSTKAFDASKKLTPEQAEQIKTLLQYSPSSTNSQPWHFIVASTEEGKARVAKSAAGNYVFNERKMLDASHVVVFCAKTAMDDVWLKLVVDQEDADGRFATPEAKAANDKGRKFFADMHRKDLHDDAEWMAKQVYLNVGNFLLGVAALGLDAVPIEGFDAAILDAEFGLKEKGYTSLVVVPVGHHSVEDFNATLPKSRLPQNITLTEV | soluble
5 | DQPGHYVGTDPNLGALSAFLAGETEEVPDANEIMPVLWDMVTTGVAQGESARAVRTAFVSNPSAALTGLSESLVPAEKQPGRVVESGLVRAKFTASNDESGSSHHRAPWIAVLELLGSLDAMTDQSGKPIELETDAPAPAGKKLSEGVVAKRALLAEIKELAGENAVAIVKTARDTTLDTACIDQSTVAIAGMAKAQQEALLEMFFSRSKIVPGLIMDDGNRLLAVFETFNKRVELNELLASEGLIKSAVTLLRTLRSTDKNLYSLARIRFDKLDGVDTNAPENMWSLTPVVSLVLALAARMHAHGFISSNKTLDSATPGWAKLADIVPDLVTGDLIAADAIILAMKKPGIA | not soluble
6 | MVKTEPLQITTELPGRTSAYRIAEVRPQVSGIILKRNFKEGSDIEAGVSLYQIDPATYQATYDSAKGDLAKAQAAANIAQLTVNRYQKLLGTQYISKQEYDQALADAQQANAAVTAAKAAVETARINLAYTKVTSPISGRIGKSNVTEGALVQNGQATALATVQQLDPIYVDVTQSSNDMMRLKQELANGTLKQENGKAKVSLITSDGIKFPQDGTLEFSDVTVDQTTGSITLRAIFPNPDHTMMPGMFVRARLEEGLNPNAILVPQQGLEHHHHHH | soluble
7 | MHHHHHHMTSVMSHEFQLATAETWPNPWPMYRALRDHDPVHHVVPPQRPEYDYYVLSRHADVWSAARDHQTFSSAQGLTVNYGELEMIGLHDTPPMVMQDPPVHTEFRKLVSRGFTPRQVETVEPTVRKFVVERLEKLRANGGGDIVTELFKPLPSMVVAHYLGVPEEDWTQFDGWTQAIVAANAVDGATTGALDAVGSMMAYFTGLIERRRTEPADDAISHLVAAGVGADGDTAGTLSILAFTFTMVTGGNDTVTGMLGGSMPLLHRRPDQRRLLLDDPEGIPDAVEELLRLTSPVQGLARTTTRDVTIGDTTIPAGRRVLLLYGSANRDERQYGPDAAELDVTRCPRNILTFSHGAHHCLGAAAARMQCRVALTELLARCPDFEVAESRIVWSGGSYVRRPLSVPFRVTSSR | soluble
8 | MLLCAGRNETLKKAVPIGVGLIESAINLTRMCLKNPDTESLIFIGSAGSYSPEMELLSVFESVCGYQIEESFSHLNSYTPLDNFIHIETEEQALFERVRVNSSNYIHTSEMFAKKMVQKGVLLENMEFFSVLSVAKAFSLKAKGIFCVSNYVGLNAYQEFKENHAKVKQILENIIDSLII | soluble
9 | GPGSMKGCCRLLSAAEAASLIRRIGPFAVHRGEATGVIEILSGDPNHPVKKLNLLGLAYAAALTELSELLSEELNAEARVAIFAARDGCSFSAGIDLKELSGMRPPSGSGAAATAAASSGPKAPAMLLQHQHRVVRTFQDGISSLARCRIPIIAAIDGHCIGGATSVASSCDVRYTTTRATFSVKEAAVGLAADIGVLQRLPAIIGEGRTRELAFTCRDFSGVEAKAMGFVEEVCADYPALLAHARKRAAQIAANSPLGVQNTKLILNWERERAAQTSLEYQAAINAFSLHCSDIPEAARAFAERREPVFTDYMVNPRGGPPHSRQS | not soluble
10 | MNIFSKPDPKELERANKRELRKTNRDLESDRRQMDRREKELEQEIKKLAAKGHNDAARHLAKQLVQLRNQKTKSIGMSARISGVQAQNSHMQSMAKMGSAMGTTVKTMKAMNAQMPLEKVAANMREFQMAQEKMGLTEEMMNDTLDSILDAPGDADEQDAIVNQVLDEIGIEMNSKLANVPALPTKVSSTAPADFDDLEAQLARLRS | not soluble
11 | MEDVWLQAQSNLAKVLTHQTFTTWIEPIRFAGAHKNTLLLEAPNQFIRDRVRESYLPMILESVRSLTDSHFQVELQVAARQQEKTAKSPRKSHTEDELGPVESEKCAPAEFSTNLNAKYTFDTFVCGGSNQFAHAAALSVANNPAGKYNPLFIYGGVGLGKTHLLTAIGNQVLTKNRKARVCFYTSEKFMNELINCLRYQKMEQFRNKFRKMDLLLIDDIQFIAGKERTQEEFFHTFNALYESHKQIVVTSDKFPKDIPGLEERLRSRFEWGLIADIQPPDTETKVAILSKKADSDGIRLPDDVALFLASSASTNVRELEGMLIRLGAVASLTGKNITLDMAREVLKDIIVDKTKEVTVEMIQKYVADHFNIKVAELKSDKRLKALVVPRQIAIYLCRDLTKASYPDIGEKFGGKDHSTIIHSVKKVDKLLSQDFELKSTIETLRKGLLNLEHHHHHH | soluble
12 | MEESSAAKIQLLKEFKFEKILKDDTKSKIITLYGKIRNEVALLLLEKTAFDLNTIKLDQLATFLQDTKLVENNDVFHWFLSTNFQDCSTLPSVKSTLIWPASETHVYKYSSQKKPMVCETPLMYLKVTKPFIETQRGPQIQWVENILTHKAEAERIVVEDPDPLNGFIVIPDLKWDRQTMSALNLMAIVHATDIASIRDLKYKHIPLLENIRNKVLTEVPKQFSVDKNQLKMFVHYLPSYYHLHVHILHVDHETGDGSAVGRAILLDDVIDRLRNSPDGLENVNITFNIGEQHFLFQPLTNMNA | soluble
13 | MRGSHHHHHHMSIITDVYAREVLDSRGNPTLEVEVYTESGAFGRGMVPSGASTGEHEAVELRDGDKSRYGGLGTQKAVDNVNNIIAEAIIGYDVRDQQAIDRAMIALDGTPNKGKLGANAILGVSIAVARAAADYLEIPLYSYLGGFNTKVLPTPMMNIINGGSHSDAPIAFQEFMILPVGAPTFKEALRYGAEIFHALKKILKSRGLETAVGDEGGFAPRFEGTEDGVETILAAIEAAGYVPGKDVFLGFDCASSEFYDKERKVYDYTKFEGEGAAVRTSAEQIDYLEELVNKYPIITIEDGMDENDWDGWKALTERLGKKVQLVGDDFFVTNTDYLARGIQEGAANSILIKVNQIGTLTETFEAIEMAKEAGYTAVVSHRSGETEDSTIADIAVATNAGQIKTGSLSRTDRIAKYNQLLRIEDQLGEVAEYRGLKSFYNLKK | soluble
14 | GTLDTTWKEATLPQVKAMLEKDTGKVSGDTVTYSGKTVHVVAAAVLPGFPFPSFEVHDKKNPTLEIPAGATVDVTFINTNKGFGHSFDITKKGPPYAVMPVIDPIVAGTGFSPVPKDGKFGYTNFTWHPTAGTYYYVCQIPGHAATGQFGKIVVK | soluble
15 | MGSDKIHHHHHHMRVILAQPRGFCAGVVRAIEIVDRALQQHGAPVYVRHEIVHNRHVVDNLRQKGARFVEELDEVPQGAVAIFSAHGVAQTVERDAEARGLDVLDATCPLVTKVHVQGRQYVGAGRTLILIGHAGHPEVEGTVGQIPGKVLLVQSEAEVENLDLPLDTPLAYVTQTTLSVDDTRGIIDALLSRFTDIVGPDTRDICYATQNRQAAVRELSKQVDVLLVVGATNSSNSNRLREIGSESGVASYLVADGSEVKPEWFANVQTVGITAGASAPEEMVKNVIDALSALGPVDVTTMAGREEKVEFKLPSKLMQPLAAREV | not soluble
16 | MEMAAAVRKCATFIEEKIGKHIDVTTMAYNRLMNHIRHMVSRAATGEKLKVDLNQFIEKNYPESFALAGDICKELGKDLNHEFLDNETGYLAIHIEQIKCDEMVSE | not soluble
17 | MTDTARKIVAQPLSAAAFAPFGQVIDTAQVASRPMNDGRARRFHDLAEIEVIGNGARVVVGLVEAEPYAVPLWLNLVERHPLGAQAFVPLNAAPFLVVVCPDESGKPGAPQAFITAPHQGVCYARNTWHSVLTPFGAAQDFVVIDRGGPGVNLEEHLFDEPWIVHLSTSGLEHHHHHH | soluble
18 | METAVEVRAPAAAAWELLTDTRRWSEWGPSVSGVECPERFIGPGTIGWVRTVVGLRLPFRITEFEPGRRWCWSVAGIPATGHRVEPLGQERCRVVFEVPMPAAPYLAVCRVAALRIRSILEGLEHHHHHH | not soluble
19 | MWSCPTLNAPRAAQKWLPVRATPHLCVLHMSRLMLSSTLIDELSYVRKDQLETSALFELIAHRYERHSIAITANEPFSGWSDAMTVAAIDRLVHHSTIIEMNGESYRKRAAVARGASTQNANDEPEDPPNRSSLEHHHHHH | not soluble
20 | MKNAETPVFKLVLFGPESSLGNALMVELLSRQHEVIAVVDDLNRHSPRPGLHFKIGGLGDAHQAEQGAAGGSAVIALLPALAPGDLPGQARLSEALVAGLARTTIRRLLLVGDFDVLDEPGKYSEVERECVAQVVDGLQRSALHWTLINAPQELAGLGMEHFRSTEGTLEPGLAEPLRRLSRIAAGMVDMLELDLHRSEHLNFVV | not soluble
21 | SAARLLRGSLRVLGGHRAPRQLPAARCSHSGGEERLETPSAKKLTDIGIRRIFSPEHDIFRKSVRKFFQEEVIPHHSEWEKAGEVSREVWEKAGKQGLLGVNIAEHLGGIGGDLYSAAIVWEEQAYSNCSGPGFSIHSGIVMSYITNHGSEEQIKHFIPQMTAGKCIGAIAMTEPGAGSDLQGIKTNAKKDGSDWILNGSKVFISNGSLSDVVIVVAVTNHEAPSPAHGISLFLVENGMKGFIKGRKLHKMGLKAQDTAELFFEDIRLPASALLGEENKGFYYIMKELPQERLLIADVAISASEFMFEETRNYVKQRKAFGKTVAHLQTVQHKLAELKTHICVTRAFVDNCLQLHEAKRLDSATACMAKYWASELQNSVAYDCVQLHGGWGYMWEYPIAKAYVDARVQPIYGGTNEIMKELIAREIVFDK | soluble
22 | GYDHKAIGITAKGAWEAVKRHFRESFNHDIQTTPFTCIGVGDMSGDVFGNGMLLSKQTKLIAAFDHRDIFIDPDPNIAESYTERMRLFQLPRSSWQDYDQTKLSKGGGIFSRTEKTITLSPEAAKAIGFAKQTGTPFEIISALLKAPVDLLWFGGIGTYIRATTETDAQVGDRANDALRITGEQVRAKVIGEGANLGVTQRGRIEYVLNGGRCNTDAIDNSAGVNCSDVEVNIKIVLASALRAKTLTRETRNELLKKMTPQVEQLVLRNNYLQTLALSLAESQSAADL | not soluble
23 | MDTLDGLKTVVAVVETNSFTAASDRLGISKALVSKYVGEVENQLGIRLFNRTTRQLALTDSGRRYYEEAIILLEQFSAMVDNVTGEQTAPRGLLRISAPVTFGEMRLAPLLPKFIALYPDLTVELVLTNGAIDMLEEGIDVRLRIGGVDDSNMIARHLTNFPLVLSASPNYAQTQGLPTTPEQLGEHHCIIDSNFRIGKQWPFISPKGRAETINVQSGLAVNSPQAVREIAIADGGIAMTPNFIVEDALADGRLLRVMPEYTTLEFGLFAIYPHRKYVARKVRCFIDFVLEQFSKK | not soluble
